{
  "source": "patent US20140220589",
  "proteins": {"B1": {"name": "streptococcal pyogenix exotoxin B (SpeB) (protein)", "chain": "QPVVKSLLDSKGIHYNQGNPYNLLTPVIEKVKPGEQSFVGQHAATGCVATATAQIMKYHNYPNKGLKDYTYTLSSNNPYFNHPKNLFAAISTRQYNWNNILPTYSGRESNVQKMAISELMADVGISVDMDYGPSSGSAGSSRVQRALKENFGYNQSVHQINRGDFSKQDWEAQIDKELSQNQPVYYQGVGKVGGHAFVIDGADGRNFYHVNWGWGGVSDGFFRLDALNPSALGTGGGAGGFNGYQSAVVGIKP"}},
  "molecular_target": "T1, H11 peptide FLVMFLSG (SEQ. ID. NO.: 1) (not fully specified)",
  "T1 chain": "FLVMFLSG",
  "data": [
    {"protein": "B1", "values": [
      {"measurement": "proteolytic activity in a microplate assay (rate of color development, mOD/min); lower limit of detection", "result": "The lower limit of detection was 100 pg of purified SpeB"}
    ]}
  ]
}
